The source of these data is article PMC10770755, “Effects of specific disease mutations in non-muscle myosin 2A on its structure and function” (The Journal of Biological Chemistry, 2023).

This data set deals with the molecule itself. Nature of the data set: negative stain electron microscopy of filaments; self-assembly into filaments on dilution into low-salt buffer (10 mM phosphate, pH 7.4, 150 mM NaCl, 0.5 mM TCEP), on ice, 200 to 500 nM protein; stained with 1% uranyl acetate.

Changes are numbered by the printed parent chain. In names and notes the source's numbering stands.

B1: GST-LMM, wild type (light meromyosin of human non-muscle myosin 2A heavy chain, residues 1212-1960) (domain or fragment, UniProt P35579 1212-1960, looked up)
chain: KANLEKAKQTLENERGELANEVKVLLQGKGDSEHKRKKVEAQLQELQVKFNEGERVRTELADKVTKLQVELDNVTGLLSQSDSKSSKLTKDFSALESQLQDTQELLQEENRQKLSLSTKLKQVEDEKNSFREQLEEEEEAKHNLEKQIATLHAQVADMKKKMEDSVGCLETAEEVKRKLQKDLEGLSQRHEEKVAAYDKLEKTKTRLQQELDDLLVDLDHQRQSACNLEKKQKKFDQLLAEEKTISAKYAEERDRAEAEAREKETKALSLARALEEAMEQKAELERLNKQFRTEMEDLMSSKDDVGKSVHELEKSKRALEQQVEEMKTQLEELEDELQATEDAKLRLEVNLQAMKAQFERDLQGRDEQSEEKKKQLVRQVREMEAELEDERKQRSMAVAARKKLEMDLKDLEAHIDSANKNRDEAIKQLRKLQAQMKDCMRELDDTRASREEILAQAKENEKKLKSMEAEMIQLQEELAAAERAKRQAQQERDELADEIANSSGKGALALEEKRRLEARIAQLEEELEEEQGNTELINDRLKKANLQIDQINTDLNLERSHAQKNENARQQLERQNKELKVKLQEMEGTVKSKYKASITALEAKIAQLEEQLDNETKERQAACKQVRRTEKKLKDVLLQVDDERRNAEQYKDQADKASTRLKQLKRQLEEAEEEAQRANASRRKLQRELEDATETADAMNREVSSLKNKLRRGDLPFVVPRRMARKGAGDGSDEEVDGKADGAEAKPAE
notes: pGEX-6P-1 adds GST and a PreScission site at the N-terminus; GST kept for EM; also called WT GST-LMM; source: E. coli Rosetta 2, purified (Glutathione Sepharose 4B); not shown: GST, N-terminal, kept
For B1, the binding result is recorded as “binds”.

B2: GST-LMM V1516M (domain or fragment, human, UniProt P35579 1212-1960, looked up)
chain: B1 chain with V305M
notes: MYH9 disease mutation; also called V1615M [sic]; source: E. coli Rosetta 2, purified (Glutathione Sepharose 4B); not shown: GST, N-terminal, kept
As for B2, the binding result is listed as “binds”.

B3: GST-LMM D1447H (domain or fragment, human, UniProt P35579 1212-1960, looked up)
chain: B1 chain with D236H
notes: MYH9 disease mutation; source: E. coli Rosetta 2, purified (Glutathione Sepharose 4B); not shown: GST, N-terminal, kept
B3: the binding result was “binds”.

B4: GST-LMM E1841K (domain or fragment, human, UniProt P35579 1212-1960, looked up)
chain: B1 chain with E630K
notes: MYH9 disease mutation; also called E1814K [sic]; source: E. coli Rosetta 2, purified (Glutathione Sepharose 4B); not shown: GST, N-terminal, kept
Regarding B4, the binding result is reported as “binds”.

B5: GST-LMM D1424G (domain or fragment, human, UniProt P35579 1212-1960, looked up)
chain: B1 chain with D213G
notes: as for B3
For B5, the binding result was “binds”.

B6: GST-LMM D1447G (domain or fragment, human, UniProt P35579 1212-1960, looked up)
chain: B1 chain with D236G
notes: as for B3
On to B6, for which the binding result is “binds”.

B7: GST-LMM D1424N (domain or fragment, human, UniProt P35579 1212-1960, looked up)
chain: B1 chain with D213N
notes: as for B3
Regarding B7, the binding result is “binds”.
